In patent US20230399384A1:
Where two headings read alike, the source gives them in different places.

Tests used:
Conditions in all cases: remark: other sources report otherwise
[1] = biological target: T1, sCoV2-RBD (Fc-tagged RBD of SARS-CoV-2 S protein) (SARS-CoV-2; human), P0DTC2; experiment: BLI (Octet) blocking of ACE2 binding to captured sCoV2-RBD
[2] = biological target: T1, sCoV2-RBD (Fc-tagged RBD of SARS-CoV-2 …); experiment: ELISA titration on coated sCoV2-RBD
[3] = biological target: T1, sCoV2-RBD (Fc-tagged RBD of SARS-CoV-2 …)
[4] = biological target: trimeric prefusion S protein of SARS-CoV-2 (SARS-CoV-2), P0DTC2

Row | Binder | IC50 [1] [µg/mL] | EC50 [2] [nM] | EC50 [3] [nM] | Kd [4] [nM]
1 | CoV2-16 (antibody, V domains shown) VH: QVQLHQWGAGLLKPSETLSRTCAVYGGSFSGYYWTWIRQAPGKGLEWIGEINHGGSTRYNPSLESRVSISVDTSKKQFSLELRSVTAADTAIYYCARGYDTNWYGDGYNWFDPWDRGTLVTVSS VL: QAVVTQPPSVSGTPGQRVTISCSGSSSSIGSNTVHWYQHLPGTAPKLLMYNNNERPSGVPARFSGSKSGTSASLVITGLQADDEAEYYCQSYDTGLSGHVFGSGTELTVL | 6.9 | 7.77 | 7.77 | 5.35
2 | CoV2-09 (antibody, V domains shown) VH: QVQLHQWGAGLLKPSETLSRTCAVYGGSFSGYYWTWIRQAPGKGLEWIGEINHGGSTRYNPSLESRVSISVDTSKKQFSLELRSVTAADTAIYYCARGYDTNWYGDGYNWFDPWDRGTLVTVSS VL: QSALTQDPSVSVALGQTVRITCQGDSLRGSFASWYRQKPGQAPVLVIFGINNRPSGVPDRFSGSSSGNTASLTITGAQAEDEADYYCNSRESNSNRILFGGGTKVTVL | 3.54 |  |  | 0.94
